The target of data set [1] is 3β-HSD dehydrogenase type I (HSD3B1) (UniProt P14060). As to the kind of experiment: cross-linking; chemical crosslinking in solution, bands on a gel.
The target in data set [2] is T1, 3β-hydroxy-Δ^5-C27-steroid oxidoreductase (HSD3B7) (Homo sapiens, UniProt Q9H2F3).
T1 construct: WT, N-terminal 6x histidine tag
T1 sequence (Q9H2F3 1-369): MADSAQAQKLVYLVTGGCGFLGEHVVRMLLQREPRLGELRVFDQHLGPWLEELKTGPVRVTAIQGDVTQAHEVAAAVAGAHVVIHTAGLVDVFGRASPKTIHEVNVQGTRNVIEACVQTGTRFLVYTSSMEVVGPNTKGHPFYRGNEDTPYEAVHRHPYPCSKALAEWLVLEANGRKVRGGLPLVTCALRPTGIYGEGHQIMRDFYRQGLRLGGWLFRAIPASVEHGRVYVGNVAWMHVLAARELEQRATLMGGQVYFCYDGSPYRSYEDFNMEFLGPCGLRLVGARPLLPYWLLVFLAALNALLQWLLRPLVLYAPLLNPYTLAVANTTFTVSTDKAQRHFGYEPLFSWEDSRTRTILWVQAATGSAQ
Nature of the data set: FRET from intrinsic tryptophan fluorescence to NADH, Morrison fit. In kind it is binding.

The target in data set [3] is 3β-HSD dehydrogenase type II (HSD3B2) (UniProt P26439). As to the kind of experiment: cross-linking; chemical crosslinking in solution, bands on a gel.
Substrate in data set [4]: CC(C)CCC[C@@H](C)[C@H]1CC[C@H]2[C@@H]3[C@H](O)C=C4C[C@@H](O)CC[C@]4(C)[C@H]3CC[C@]12C
Nature of the data set: steady-state kinetics of purified enzyme (NAD(P)H-Glo), Km. The format is biochemical, Homo sapiens. Also on record: kcat / Vmax: unit not given here. Particulars: NAD+ predicted oxysterol pocket; F93, F205, I201; near Y-S-N-K tetrad (docking).

Substrate in data set [5]: CC(CCCC(C)C1CCC2C3C(O)C=C4C[C@@H](O)CC[C@]4(C)C3CC[C@]12C)C(=O)O
The description is as above. In kind it is biochemical, Homo sapiens. Also on record: kcat / Vmax: unit not given here. Particulars: NAD+ predicted oxysterol pocket; F93, F205, I201 (docking).

Substrate in data set [6]: C[C@@H](CO)CCC[C@@H](C)[C@H]1CC[C@H]2[C@@H]3[C@H](O)C=C4C[C@@H](O)CC[C@]4(C)[C@H]3CC[C@]12C
Described as above. The format is biochemical, Homo sapiens. Also on record: kcat / Vmax: unit not given here. As to conditions: NAD+ predicted oxysterol pocket; F93, F205, I201, Q208 (docking).

Substrate in data set [7]: C[C@H](CCCC(C)(C)O)[C@H]1CC[C@H]2[C@@H]3[C@H](O)C=C4C[C@@H](O)CC[C@]4(C)[C@H]3CC[C@]12C
Described as above. Also on record: kcat / Vmax: unit not given here. Particulars: NAD+ predicted oxysterol pocket; F93, F205, I201 (docking). The format is biochemical, Homo sapiens.

Substrate in the data set “purified protein”: NC(=O)c1ccc[n+]([C@@H]2O[C@H](COP(=O)([O-])OP(=O)(O)OC[C@H]3O[C@@H](n4cnc5c(N)ncnc54)[C@H](O)[C@@H]3O)[C@@H](O)[C@H]2O)c1
As to the kind of experiment: purified protein. Particulars: varied: cofactor. The format is biochemical, Homo sapiens.

Substrate in data set [8]: CC(C)CCC[C@@H](C)[C@H]1CC[C@H]2[C@@H]3[C@H](O)C=C4C[C@@H](O)CC[C@]4(C)[C@H]3CC[C@]12C
Nature of the data set: steady-state kinetics of purified mutant, Km. The format is biochemical, Homo sapiens. Particulars: NAD+ predicted oxysterol binding pocket.

Substrate in data set [9]: CC(C)CCC[C@@H](C)[C@H]1CC[C@H]2[C@@H]3[C@H](O)C=C4C[C@@H](O)CC[C@]4(C)[C@H]3CC[C@]12C
Nature of the data set: steady-state kinetics of purified mutant, apparent Km. In kind it is biochemical, Homo sapiens. Particulars: NAD+ predicted oxysterol binding pocket.

The mark [10] stands for this setting: conserved Rossmann fold domain (docking), binds first.

Residue numbers refer to the chain shown, from its start. Names may count otherwise.

As usually defined, the stoichiometry N is a count of units in the complex or per binding partner. “3β-HSD dehydrogenase type I (HSD3B1) (from UniProt P14060 1-373) (enzyme)” displayed a stoichiometry N in data set [1] of 2.

One may read the Kd as the equilibrium constant for the complex coming apart. In turn, `NC(=O)C1=CN([C@@H]2O[C@H](COP(=O)(O)OP(=O)(O)OC[C@H]3O[C@@H](n4cnc5c(N)ncnc54)[C@H](O)[C@@H]3O)[C@@H](O)[C@H]2O)C=CC1` [NADH] displayed a Kd in data set [2] of 780 nM.

As for “3β-HSD dehydrogenase type II (HSD3B2) (from UniProt P26439 1-372) (enzyme)”, the stoichiometry N in data set [3] came to 2.

B1: 3β-hydroxy-Δ^5-C27-steroid oxidoreductase (HSD3B7) (Homo sapiens) (protein)
chain: T1 sequence (Q9H2F3 1-369)
notes: WT, N-terminal 6x histidine tag
For orientation: Km means the substrate concentration at which the rate is half of its maximum. The term kcat/Km denotes the second-order rate constant that governs catalysis at low substrate concentration. For B1, the Michaelis constant (Km) in data set [4] is 17.4 µM; in [5], 8.6 µM; in data set [6], 3.8 µM; in data set [7], 18.3 µM; in the data set “purified protein” (setting [10]), 45.8 µM. Besides, the Vmax in data set [4] is on record as 735 (669.5, 812.3); in [5] it was 551.8 (513.5, 593.2); in data set [6], 532.0 (493.0, 573.4); in data set [7] it was 901.8 (785.3, 1044); in “purified protein” (setting [10]), 587.2 (550.0, 628.7). Also, the kcat in data set [4] is 30.9 (28.1, 34.1); in data set [5] it was 23.2 (21.6, 24.9); in data set [6] it was 22.4 (20.7, 24.1); in [7] it was 37.9 (33.0, 43.9); in “purified protein” (setting [10]), 24.7 (23.1, 26.4). The kcat/Km in [4] is 30000 ± 10000 M⁻¹ s⁻¹; in data set [5] it was 45000 ± 17000 M⁻¹ s⁻¹; in [6], 98000 ± 22000 M⁻¹ s⁻¹; in data set [7] it was 35000 ± 12000 M⁻¹ s⁻¹; in “purified protein” (setting [10]), 9000 ± 3200 M⁻¹ s⁻¹.

B2: 3β-hydroxy-Δ^5-C27-steroid oxidoreductase (HSD3B7) (Homo sapiens; F205A) (protein)
chain: T1 sequence (Q9H2F3 1-369) with F205A
notes: F205A mutant
Consider B2, for which, in [8], the Km is 11.2 µM; the Vmax is 76.6 (62.5, 96.0); the kcat is given as 1.5 (1.3, 1.9); the catalytic efficiency (kcat/Km) was 2200 ± 700 M⁻¹ s⁻¹. Besides, in the data set “purified protein”, the Km is 93.8 µM; the Vmax was 288.2 (255.0, 330.6); the kcat is recorded as 5.8 (5.1, 6.6); the kcat/Km came out at 1000 ± 400 M⁻¹ s⁻¹.

B3: 3β-hydroxy-Δ^5-C27-steroid oxidoreductase (HSD3B7) (Homo sapiens; F93A) (protein)
chain: T1 sequence (Q9H2F3 1-369) with F93A
notes: F93A mutant
Consider B3, for which, in data set [9], the Km is 58.2 µM; the Vmax is 286.5 (224.2, 405.0); the kcat is 14.3 (11.2, 20.3); the catalytic efficiency (kcat/Km) is 4100 ± 2000 M⁻¹ s⁻¹.
